Data on 4 substances can be found in US20180066017A1, “CLASS I MHC PHOSPHOPEPTIDES FOR CANCER IMMUNOTHERAPY AND DIAGNOSIS” (Agenus Inc., priority 2010, published 2018).

Square brackets hold non-standard residues; d marks the D form. Ends that are not written are not given here. pS = N[C@@H](COP(=O)(O)O)C(=O)O

The test system of test [1] is cancer cell lines COV413.AAD.A4, DM331.AAD.A4, SLM2.AAD.A1, MCF7.AAD.A2, MDAMB231.AAD; JY EBV-BLCL control. As to the kind of experiment: Recognition of naturally processed and presented phosphopeptides on cancer cells by phosphopeptide-specific CTL (murine IFNγ release). The test is classed as cell-based. Conditions: FIG. 1A/1B; for recognition of the phosphopeptide on control cell line by phosphopeptide-specific CTL (murine IFNγ): JY EBV-BLCL control cell line; for recognition of the phosphopeptide on cancer cell lines by phosphopeptide-specific CTL (murine IFNγ): ovarian carcinoma, melanoma and breast carcinoma cell lines. How it is done:
FIGS. 1A and 1B are a graphic illustration of the recognition of naturally processed and presented phosphorylated peptides on cancer cells by the phosphopeptide-specific CTL. Phosphopeptide-specific CTL were incubated with the following cancer cell lines or EBV-transformed B lymphoblastoid cell lines (BLCL): COV413.AAD.A4 ovarian carcinoma, DM331.AAD.A4 and SLM2.AAD.A1 melanomas, MCF7.AAD.A2 and MDAMB231.AAD breast carcinomas, and JY EBV-BLCL. Supernatants were harvested and evaluated for the presence of murine IFNγ (produced by murine CTL lines). […] The designation “pS” denotes a phosphoserine residue. The ordinate indicates murine IFNγ in pg/ml. The abscissa indicates each cell line.

The target of the next test is HLA A*0201 (Homo sapiens, UniProt P04439, D140Y/D185E/D98H/E176V/E277Q/G131W/G231S/I119V/I121R/I166T/I218V/L300P/L318F/N151K/N90K/P208A/P217A/Q86G/Q94H/R138H/R169H/T345S). The experiment in a line: Binding of IRS-2 phosphopeptides to HLA A*0201. The text has this: (§1) We have also shown that we can clone the T-cell receptor on the murine cytotoxic T-cells and then inject the corresponding DNA into normal human T-cells. This process turns them into cytotoxic T-cells that now recognize cancer cells that express the same class I phosphopeptides derived from IRS-2 and β-catenin. […] These experiments also open the door for using class I phosphopeptides in adopted T-cell therapy of cancer. This approach has shown dramatic success in the treatment of advanced stage metastatic melanoma. […] RVApSPTSGV (SEQ ID NO: 1289) binds to HLA A*0201 and both RVApSPTSGVK (SEQ ID NO: 53) and RVApSPTSGVKR (SEQ ID NO: 54) bind to HLA A*0301.

The next test deals with HLA A*0301 (Homo sapiens, UniProt P04439). As to the kind of experiment: Binding / presentation of IRS-2 phosphopeptides by HLA A*0301.
Text: as §1

As for “GLLGpSPVRA (GLLG[pS]PVRA) [phosphopeptide with phosphoserine residue recognized by CTL lines 6850 and 6960]”, in test [1], the “recognition of the phosphopeptide on control cell line by phosphopeptide-specific CTL (murine IFNγ)” value is reported as “not the control cell line” and the “recognition of the phosphopeptide on cancer cell lines by phosphopeptide-specific CTL (murine IFNγ)” value is on record as “recognize the phosphopeptide on all the cancer cell lines”.
RVApSPTSGV (RVA[pS]PTSGV): in the test with HLA A*0201, the “binding to HLA A*0201” value was “binds”. Further, the “presentation by the A*0301 molecule” value with HLA A*0301 is “cannot be presented”. In test [1], the “recognition of the phosphopeptide on control cell line by phosphopeptide-specific CTL (murine IFNγ)” value was “not the control cell line” and the “recognition of the phosphopeptide on cancer cell lines by phosphopeptide-specific CTL (murine IFNγ)” value was “recognize the phosphopeptide on all the cancer cell lines”.
With RVApSPTSGVK (RVA[pS]PTSGVK), in the test with HLA A*0201, the “binding to HLA A*0201” value is given as “Neither of the A*0301 peptides bind”. Also, in the test with HLA A*0301, the “binding to HLA A*0301” value is given as “bind”.
For RVApSPTSGVKR (RVA[pS]PTSGVKR), the “binding to HLA A*0201” value with HLA A*0201 is listed as “Neither of the A*0301 peptides bind”. For the same substance, the “binding to HLA A*0301” value in the test with HLA A*0301 is reported as “bind”.
